Results as given in the supplement of paper PMC10724198.
± gives the standard deviation of the averaged measurements.
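Further: PSI is a weighted mean of sequencing reads over stability bins, variants kept only with over 10 reads, mCherry proximal and sfGFP distal, peptide attached via GGGS linker.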

Each sequence was assayed on Saccharomyces cerevisiae (assay: protein stability index of tFT-peptide fusion (C-terminal peptide) (PSI (0-1 scale)); higher = more stable (slower turnover)). Conditions: genetic background: wild type; temperature: 30 C.
TTRLARNEQVKR gave a protein stability index of 0.62 ± 0.1.
Sequence TVAPNFIPTSTS has a protein stability index of 0.662 ± 0.044.
For TVFPPLPTLPCV, the protein stability index was 0.792 ± 0.1.
With TVLRMFPPRSIW the protein stability index was 0.67 ± 0.046.
TVPAKQHLSGYE showed a protein stability index of 0.679 ± 0.011.
In the case of TVQPGAVRFILF, the protein stability index is reported as 0.703 ± 0.028.
With TVRKMEKKKDGG the protein stability index was 0.663 ± 0.012.
TVVVGHSRLVVG showed a protein stability index of 0.703 ± 0.027.
Work on TVYSPAYSIIHQ yielded a protein stability index of 0.584 ± 0.053.
Sequence TWGACGKMLSDR has a protein stability index of 0.682 ± 0.026.
Sequence TWIEGGVDRQRG has a protein stability index of 0.683 ± 0.074.
TWIKVPVERTRP was tested, and the protein stability index was 0.683 ± 0.053.
TYIRRTICGVLS showed a protein stability index of 0.587 ± 0.021.
TYLCLLVRDNRG showed a protein stability index of 0.706 ± 0.012.
In the case of TYNVVKSMVDNK, the protein stability index is reported as 0.672 ± 0.026.
With TYPRPGSSIWLR the protein stability index was 0.572 ± 0.022.
TYRLLAEPTPPA gave a protein stability index of 0.702 ± 0.018.
For TYYCFYCHPSLL, the protein stability index was 0.699 ± 0.057.
For VAAFGGGATNGV, the protein stability index was 0.736 ± 0.029.
Work on VAGQISGLIYFR yielded a protein stability index of 0.699 ± 0.044.
In the case of VAHSPLPLILPI, the protein stability index is reported as 0.629 ± 0.041.
With VAPPRQGSPASR the protein stability index was 0.725 ± 0.057.
Work on VARFRGGPVPSF yielded a protein stability index of 0.67 ± 0.045.
VARGCNSVYGYA was tested, and the protein stability index was 0.653 ± 0.012.
Work on VASITEIRKKGR yielded a protein stability index of 0.629 ± 0.022.
For VATGVFADPMMC, the protein stability index was 0.667 ± 0.11.
VAVCGTTNGKNA was tested, and the protein stability index was 0.75 ± 0.033.
VAVGIVGGWWGV showed a protein stability index of 0.843 ± 0.11.
VAVIGAPPGNSR gave a protein stability index of 0.672 ± 0.029.
VAVRCVLWEGFS gave a protein stability index of 0.76 ± 0.084.
With VAVSLFVPVLFL the protein stability index was 0.567 ± 0.061.
Work on VAWTYDYTGVLR yielded a protein stability index of 0.626 ± 0.037.
With VCAASAGGARAG the protein stability index was 0.6213 ± 0.0025.
Sequence VCFVGSCFKLVL has a protein stability index of 0.6324 ± 0.0032.
VCGGVWGGDNGG gave a protein stability index of 0.771 ± 0.049.
In the case of VCGLCGGFMGLA, the protein stability index is reported as 0.69 ± 0.042.
VCLFPDTMSWDC gave a protein stability index of 0.803 ± 0.075.
VCLVHSPFDTLP gave a protein stability index of 0.699 ± 0.037.
VCLVLGGVEWCV gave a protein stability index of 0.6861 ± 0.004.
VCRGRGVEGIGW was tested, and the protein stability index was 0.695 ± 0.12.
In the case of VCSVLFPFLPLP, the protein stability index is reported as 0.7043 ± 0.0056.
Sequence VCSVVGGGYSWG has a protein stability index of 0.686 ± 0.12.
Work on VCVQECMPTAWR yielded a protein stability index of 0.704 ± 0.036.
Sequence VDASGYDEQSVH has a protein stability index of 0.6622 ± 0.0018.
For VDNTRKRSTNSV, the protein stability index was 0.694 ± 0.021.
For VDSCASVGQGGL, the protein stability index was 0.702 ± 0.044.
VDVPAGPGGGAC was tested, and the protein stability index was 0.641 ± 0.077.
VDVWCGRGVGRG was tested, and the protein stability index was 0.707 ± 0.031.
Sequence VEAIKTSMFFLW has a protein stability index of 0.711 ± 0.055.
VEFWGAVCNDCL showed a protein stability index of 0.706 ± 0.043.
VEGGGYVVHSGG was tested, and the protein stability index was 0.657 ± 0.066.
Sequence VEPLLGHPISRD has a protein stability index of 0.702 ± 0.049.
In the case of VERRTDRNLGSV, the protein stability index is reported as 0.645 ± 0.007.
With VFAPWLFLFGFF the protein stability index was 0.521 ± 0.017.
Sequence VFCGRVVVGSVV has a protein stability index of 0.65745 ± 0.0006.
VFCSCTARPPLR was tested, and the protein stability index was 0.717 ± 0.023.
VFCTFVGPRSDV gave a protein stability index of 0.775 ± 0.13.
With VFESGRYLRVAP the protein stability index was 0.777 ± 0.05.
In the case of VFGAHGRYQDSR, the protein stability index is reported as 0.607 ± 0.054.
For VFGRGGRGGPLG, the protein stability index was 0.647 ± 0.049.
VFLCNGVGGRGG showed a protein stability index of 0.681 ± 0.27.
For VFLLFFFPCSSR, the protein stability index was 0.528 ± 0.013.
In the case of VFLPPPPPPAPP, the protein stability index is reported as 0.639 ± 0.011.
VFLRGWGRSEGG gave a protein stability index of 0.679 ± 0.012.
Sequence VFLRVGAPPVRI has a protein stability index of 0.586 ± 0.032.
Sequence VFNSFPLRLFGL has a protein stability index of 0.693 ± 0.023.
In the case of VFRFCCQTGALR, the protein stability index is reported as 0.671 ± 0.02.
Work on VFSCWQFAGGGY yielded a protein stability index of 0.69 ± 0.037.
VFSLLRCLFRPP was tested, and the protein stability index was 0.669 ± 0.012.
For VFSLPFPSRSPL, the protein stability index was 0.805 ± 0.028.
For VFVGGGCRGFCL, the protein stability index was 0.624 ± 0.075.
For VFVPPPPSPSSL, the protein stability index was 0.683 ± 0.01.
VFYLNLLNQTRV gave a protein stability index of 0.629 ± 0.016.
For VGAFCLLLGFEG, the protein stability index was 0.599 ± 0.038.
For VGGAVGAVGGGG, the protein stability index was 0.651 ± 0.02.
VGGCRVRDVAGE gave a protein stability index of 0.686 ± 0.042.
In the case of VGGCVVSFSANR, the protein stability index is reported as 0.657 ± 0.043.
For VGGGGSLVVESG, the protein stability index was 0.70581 ± 0.00064.
For VGGIGKGSWRWM, the protein stability index was 0.6466 ± 0.0034.
VGGVDMCGARVV was tested, and the protein stability index was 0.754 ± 0.032.
VGGVWWGGWGHW was tested, and the protein stability index was 0.733 ± 0.039.
Sequence VGHVVVRLWPHE has a protein stability index of 0.665 ± 0.013.
VGKVRGLEAVEE gave a protein stability index of 0.683 ± 0.0052.
VGLPPVAGLVTG showed a protein stability index of 0.751 ± 0.073.
Work on VGRERGRAACGE yielded a protein stability index of 0.662 ± 0.049.
With VGRGEEYYGMEV the protein stability index was 0.634 ± 0.0066.
In the case of VGSRLVYSAFNV, the protein stability index is reported as 0.69 ± 0.01.
For VGSTKMRYFGEG, the protein stability index was 0.692 ± 0.018.
VGVCVGWDGRLW was tested, and the protein stability index was 0.691 ± 0.025.
With VGVGGGSVASCV the protein stability index was 0.671 ± 0.018.
For VGVRGGRFWAGA, the protein stability index was 0.682 ± 0.018.
VHHHQTTCHRHR showed a protein stability index of 0.682 ± 0.018.
In the case of VHKMAARGATRL, the protein stability index is reported as 0.647 ± 0.036.
Work on VHVSRHGSSIAF yielded a protein stability index of 0.74 ± 0.008.
VIDLIYSMKVRR showed a protein stability index of 0.688 ± 0.034.
Work on VIKRQSERRYLV yielded a protein stability index of 0.587 ± 0.039.
VIMGLKYYRKCE showed a protein stability index of 0.658 ± 0.014.
VIQKHAMGDALL showed a protein stability index of 0.699 ± 0.03.
Sequence VISLPWRPKSWW has a protein stability index of 0.739 ± 0.07.
Sequence VIWAPVLAFSVR has a protein stability index of 0.638 ± 0.051.
VKEKRDLSNYNI showed a protein stability index of 0.677 ± 0.037.
In the case of VKGLFLHFLESS, the protein stability index is reported as 0.695 ± 0.042.
Sequence VKGVGNTAGRGV has a protein stability index of 0.659 ± 0.023.
VLAFSPCPPPPP was tested, and the protein stability index was 0.657 ± 0.026.
Work on VLAGLTWQIAEL yielded a protein stability index of 0.668 ± 0.023.
VLEAIIFRKHDN was tested, and the protein stability index was 0.74 ± 0.14.
VLFCSVSFGGGQ showed a protein stability index of 0.614 ± 0.091.
VLGFLGWPCSSS showed a protein stability index of 0.76 ± 0.0078.
VLGKIIKLSTYS showed a protein stability index of 0.629 ± 0.059.
For VLHAGACARANR, the protein stability index was 0.708 ± 0.043.
With VLIAIIRYGPYT the protein stability index was 0.538 ± 0.0021.
In the case of VLLATPFSAIFR, the protein stability index is reported as 0.6907 ± 0.0057.
VLLGSEGGVQSR gave a protein stability index of 0.646 ± 0.011.
VLLLSPPLRPCP gave a protein stability index of 0.69 ± 0.024.
In the case of VLNSTSFLNKNL, the protein stability index is reported as 0.712 ± 0.059.
For VLRPVSCTKLAA, the protein stability index was 0.656 ± 0.083.
Sequence VLRRADLGYPRV has a protein stability index of 0.663 ± 0.048.
VLRRALIIELLE was tested, and the protein stability index was 0.66 ± 0.025.
Sequence VLRVWGCGEVGV has a protein stability index of 0.69 ± 0.019.
VLSFLSSFFVRV showed a protein stability index of 0.65 ± 0.079.
In the case of VLSLLPFSPFSP, the protein stability index is reported as 0.735 ± 0.096.
With VLSRPLSFPAGI the protein stability index was 0.61 ± 0.047.
For VLTPLPWSRCSP, the protein stability index was 0.7017 ± 0.0061.
In the case of VLVSSLSSSKFF, the protein stability index is reported as 0.647 ± 0.088.
VLVTWLESVGGL gave a protein stability index of 0.634 ± 0.027.
In the case of VLVVFVGDSSKR, the protein stability index is reported as 0.662 ± 0.039.
VLYGRFSLLGWC showed a protein stability index of 0.595 ± 0.042.
VMFACAGVETRR showed a protein stability index of 0.745 ± 0.037.
VMGAGGGSRSRV showed a protein stability index of 0.677 ± 0.037.
Work on VMTRNERGQERK yielded a protein stability index of 0.675 ± 0.038.
VMVTYCSEVQDR was tested, and the protein stability index was 0.693 ± 0.011.
Work on VNGLVLFEYLMV yielded a protein stability index of 0.579 ± 0.029.
With VNILRVYHVARA the protein stability index was 0.564 ± 0.097.
Sequence VNPWLRCSFRFW has a protein stability index of 0.6881 ± 0.0066.
VNRDYLGTNKSS was tested, and the protein stability index was 0.604 ± 0.017.
Work on VNTNLRSTRSNT yielded a protein stability index of 0.7271 ± 0.0061.
In the case of VNVCIAEYGNDR, the protein stability index is reported as 0.768 ± 0.062.
Sequence VPFPFLPPSPSL has a protein stability index of 0.87 ± 0.14.
Work on VPFVGLGLKVRV yielded a protein stability index of 0.6236 ± 0.0057.
VPGFARLFGLLD gave a protein stability index of 0.737 ± 0.047.
For VPGFCYKERAVV, the protein stability index was 0.673 ± 0.034.
In the case of VPGQRRPSQSPR, the protein stability index is reported as 0.653 ± 0.21.
Work on VPISLSVVVLPV yielded a protein stability index of 0.569 ± 0.017.
VPKRLLSFDQGG was tested, and the protein stability index was 0.6801 ± 0.0032.
VPLSALPPPPPA showed a protein stability index of 0.703 ± 0.027.
Sequence VPPDTAPPPPRR has a protein stability index of 0.6994 ± 0.0055.
VPPPLRPLPPPP showed a protein stability index of 0.629 ± 0.14.
VPPSPPRPPPPS gave a protein stability index of 0.697 ± 0.053.
Work on VPRAVACDCVLL yielded a protein stability index of 0.6845 ± 0.0051.
VPSPRHFPLPPP showed a protein stability index of 0.647 ± 0.049.
Sequence VPTSLGAYLRMV has a protein stability index of 0.511 ± 0.014.
VPWTPPRVERVP gave a protein stability index of 0.737 ± 0.036.
VQCSLWYARLIL gave a protein stability index of 0.513 ± 0.033.
VQLGRRGQAVEP showed a protein stability index of 0.7 ± 0.036.
Sequence VQRFLGSCPLSI has a protein stability index of 0.611 ± 0.051.
VQSLCGDCGCCL gave a protein stability index of 0.735 ± 0.04.
Work on VRERWNTKKKKK yielded a protein stability index of 0.64 ± 0.057.
Work on VRGLGVIGVCVL yielded a protein stability index of 0.741 ± 0.019.
VRGLHRRFEPSN was tested, and the protein stability index was 0.8 ± 0.088.
With VRGLYEHSLGSR the protein stability index was 0.741 ± 0.066.
